The values that follow come from patent publication EP4768039A1, “PHARMACEUTICAL COMPOSITION AND USE THEREOF” (Shanghai Regenelead Therapies Co., Ltd., priority 2023, dated 2025).

One data set addresses Human VEGF-A protein (human) (UniProt P15692). As to the kind of experiment: cell-based or functional assay.
Sequence of UniProt P15692 (P15692 other isoform, or with tags, fused parts or gaps limits assumed): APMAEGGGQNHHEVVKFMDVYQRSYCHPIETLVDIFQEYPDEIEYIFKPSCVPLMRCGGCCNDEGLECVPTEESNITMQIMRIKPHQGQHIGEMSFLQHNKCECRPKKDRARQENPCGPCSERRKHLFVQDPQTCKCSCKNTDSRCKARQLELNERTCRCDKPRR
Settings: not given
Regarding “PR1010(R1D2-R2D3-linker-R2D2-R2D3-Fc) (from UniProt P01857 104-330) (Fc fusion)”, the VEGF-A IC50 (nM); VEGF-A-induced NFAT-RE Luc2P KDR reporter cells was determined as 2.71 nM.
In turn, “PR1094(R1D2-R2D3-linker-R2D2(C162V)-R2D3-Fc) (from UniProt P01857 104-330) (Fc fusion)” yielded a VEGF-A IC50 (nM); VEGF-A-induced NFAT-RE Luc2P KDR reporter cells of 0.34 nM.
As to “PR1109(R1D2-R2D3-linker-R2D2(V219I)-R2D3-Fc) (from UniProt P01857 104-330) (Fc fusion)”, the VEGF-A IC50 (nM); VEGF-A-induced NFAT-RE Luc2P KDR reporter cells amounted to 0.18 nM.
With “PR1114(R1D2-R2D3-linker-R2D2-R2D3(N274I)-Fc) (from UniProt P01857 104-330) (Fc fusion)”, the VEGF-A IC50 (nM); VEGF-A-induced NFAT-RE Luc2P KDR reporter cells came out at 0.36 nM.
“PR1115(R1D2-R2D3-linker-R2D2-R2D3(R275L)-Fc) (from UniProt P01857 104-330) (Fc fusion)” yielded a VEGF-A IC50 (nM); VEGF-A-induced NFAT-RE Luc2P KDR reporter cells of 0.28 nM.
With “PR1118(R1D2-R2D3-linker-R2D2-R2D3(D276Q)-Fc) (from UniProt P01857 104-330) (Fc fusion)”, the VEGF-A IC50 (nM); VEGF-A-induced NFAT-RE Luc2P KDR reporter cells was 0.22 nM.
The same measure, in the same setting: under “PR1119(R1D2-R2D3-linker-R2D2-R2D3(L277R)-Fc) (from UniProt P01857 104-330) (Fc fusion)” stands 0.14 nM; under “PR1120(R1D2-R2D3-linker-R2D2-R2D3(K278D)-Fc) (from UniProt P01857 104-330) (Fc fusion)”, 0.38 nM.
“PR1122(R1D2-R2D3-linker-R2D2-R2D3(K278E)-Fc) (from UniProt P01857 104-330) (Fc fusion)” showed a VEGF-A IC50 (nM); VEGF-A-induced NFAT-RE Luc2P KDR reporter cells of 0.36 nM.
On to “PR1123(R1D2-R2D3-linker-R2D2-R2D3(Q280E)-Fc) (from UniProt P01857 104-330) (Fc fusion)”, for which the VEGF-A IC50 (nM); VEGF-A-induced NFAT-RE Luc2P KDR reporter cells amounted to 0.21 nM.
“PR1124(R1D2-R2D3-linker-R2D2-R2D3(S283T)-Fc) (from UniProt P01857 104-330) (Fc fusion)” yielded a VEGF-A IC50 (nM); VEGF-A-induced NFAT-RE Luc2P KDR reporter cells of 0.29 nM.
Molecule “PR1125(R1D2-R2D3-linker-R2D2-R2D3(E284H)-Fc) (from UniProt P01857 104-330) (Fc fusion)” displayed a VEGF-A IC50 (nM); VEGF-A-induced NFAT-RE Luc2P KDR reporter cells of 0.23 nM.
In turn, “PR1126(R1D2-R2D3-linker-R2D2-R2D3(F288Y)-Fc) (from UniProt P01857 104-330) (Fc fusion)” returned a VEGF-A IC50 (nM); VEGF-A-induced NFAT-RE Luc2P KDR reporter cells of 0.7 nM.
For “PR1129(R1D2-R2D3-linker-R2D2-R2D3(M314S)-Fc) (from UniProt P01857 104-330) (Fc fusion)”, the VEGF-A IC50 (nM); VEGF-A-induced NFAT-RE Luc2P KDR reporter cells worked out at 0.67 nM.
In turn, “PR1136(R1D2-R2D3-linker-R2D2-R2D3(L313R)-Fc) (from UniProt P01857 104-330) (Fc fusion)” gave a VEGF-A IC50 (nM); VEGF-A-induced NFAT-RE Luc2P KDR reporter cells of 0.14 nM.
Same read-out and setting: under “PR1141(R1D2-R2D3-linker-R2D2(C162V)-R2D3(N274F)-Fc) (from UniProt P01857 104-330) (Fc fusion)” stands 1.14 nM; under “PR1142(R1D2-R2D3-linker-R2D2(C162V)-R2D3(N274I)-Fc) (from UniProt P01857 104-330) (Fc fusion)”, 0.99 nM; under “PR1143(R1D2-R2D3-linker-R2D2(C162V)-R2D3(R275L)-Fc) (from UniProt P01857 104-330) (Fc fusion)”, 0.84 nM.
As to “PR1146(R1D2-R2D3-linker-R2D2(C162V)-R2D3(L289Y)-Fc) (from UniProt P01857 104-330) (Fc fusion)”, the VEGF-A IC50 (nM); VEGF-A-induced NFAT-RE Luc2P KDR reporter cells came out at 0.98 nM.
On to “PR1147(R1D2-R2D3-linker-R2D2(C162V)-R2D3(L313Y)-Fc) (from UniProt P01857 104-330) (Fc fusion)”, for which the VEGF-A IC50 (nM); VEGF-A-induced NFAT-RE Luc2P KDR reporter cells stood at 1.16 nM.
Turning to “PR1148(R1D2-R2D3-linker-R2D2(C162V)-R2D3(L277R/L289Y)-Fc) (from UniProt P01857 104-330) (Fc fusion)”, the VEGF-A IC50 (nM); VEGF-A-induced NFAT-RE Luc2P KDR reporter cells is 1.49 nM.
The same measure, in the same setting: under “PR1149(R1D2-R2D3-linker-R2D2(C162V/Y221S/R222K)-R2D3-Fc) (from UniProt P01857 104-330) (Fc fusion)” stands 0.82 nM; under “PR1150(R1D2-R2D3-linker-R2D2(C162V)-R2D3(L313R)-Fc) (from UniProt P01857 104-330) (Fc fusion)”, 0.81 nM.
“PR1165(R1D2-R2D3-linker-R2D2(C162I)-R2D3-Fc) (from UniProt P01857 104-330) (Fc fusion)” displayed a VEGF-A IC50 (nM); VEGF-A-induced NFAT-RE Luc2P KDR reporter cells of 0.92 nM.
Consider “PR1166(R1D2-R2D3-linker-R2D2(C162L)-R2D3-Fc) (from UniProt P01857 104-330) (Fc fusion)”, for which the VEGF-A IC50 (nM); VEGF-A-induced NFAT-RE Luc2P KDR reporter cells came out at 1.12 nM.
Turning to “PR1167(R1D2-R2D3-R2D2(C162V)-R2D3(N274F/S283T)-Fc) (Fc fusion)”, the VEGF-A IC50 (nM); VEGF-A-induced NFAT-RE Luc2P KDR reporter cells was determined as 1.1 nM.
“PR1168(R1D2-R2D3-R2D2(C162V/Y221S/R222K)-R2D3(N274F)-Fc) (Fc fusion)” came in with a VEGF-A IC50 (nM); VEGF-A-induced NFAT-RE Luc2P KDR reporter cells of 1.15 nM.
For “PR1169(R1D2-R2D3-R2D2(C162V/Y221S/R222K)-R2D3(S283T)-Fc) (Fc fusion)”, the VEGF-A IC50 (nM); VEGF-A-induced NFAT-RE Luc2P KDR reporter cells was determined as 0.9 nM.
Still for that read-out and setting: for “PR1170(R1D2-R2D3-R2D2(C162V/Y221S/R222K)-R2D3(N274F/S283T)-Fc) (Fc fusion)” the value was 0.89 nM; for “PR1171(R1D2-R2D3-linker-R2D2(C162V)-R2D3(N274F/S283T)-Fc) (from UniProt P01857 104-330) (Fc fusion)”, 1.09 nM; for “PR1172(R1D2-R2D3-linker-R2D2(C162V/Y221S/R222K)-R2D3(N274F)-Fc) (from UniProt P01857 104-330) (Fc fusion)”, 0.92 nM.
The same measure, in the same setting: under “PR1173(R1D2-R2D3-linker-R2D2(C162V/Y221S/R222K)-R2D3(S283T)-Fc) (from UniProt P01857 104-330) (Fc fusion)” stands 1.08 nM.

System in another data set: not listed separately
As to the kind of experiment: Temperature sensitivity of pH of different buffers. The format is physicochemical. The settings on record: buffer working solutions, 2 °C to 30 °C; FIG. 17. As to the method:
• 1. About 3 mL of each of different buffers was added to a centrifuge tube. The pH value in the process of cooling from 30 °C to about 2 °C was measured with a pH meter in an ice-water bath and recorded, and then the pH change in the process of heating the solution from 2 °C to 30 °C was recorded. Table 30. Buffering ranges of different buffers
For `OCC(CO)(CO)NCCCNC(CO)(CO)CO` [BTP, bis-tris propane], the “pH decrease as the temperature increased by 1 °C” value is “about 0.024”.
On to `O=S(=O)(O)CCN1CCN(CCO)CC1` [HEPES, N-2-hydroxyethylpiperazine-N'-2-ethanesulfonic acid], for which the “pH decrease as the temperature increased by 1 °C” value was “about 0.001”.
Regarding `NC(CO)(CO)CO` [Tris], the “pH decrease as the temperature increased by 1 °C” value is reported as “about 0.024”.

System in a further data set: not given
Assay: not given
Particulars: pH range of the buffer system; cited from earlier work.
Regarding `OCC(CO)(CO)NCCCNC(CO)(CO)CO` [BTP, bis-tris propane], the Buffering range is recorded as 6.3-9.5.
`O=S(=O)(O)CCN1CCN(CCO)CC1` [HEPES, N-2-hydroxyethylpiperazine-N'-2-ethanesulfonic acid]: the Buffering range is reported as 6.8-8.2.
For the molecule `NC(CO)(CO)CO` [Tris], the Buffering range is on record as 7.0-9.2.
